Data from PMC9958131 (Nature Communications, 2023).

System: recombinant human PAD2 and PAD4
Experiment: Citrullination site mapping by trypsin digestion and mass spectrometry; protein-level modifications over native, PAD2- and PAD4-citrullinated samples combined
Format: biochemical
Details: trypsin digest, Sequest HT search; co-identified proteins in the fibrinogen and vimentin samples (native, PAD2-cit, PAD4-cit); not split by sample or enzyme
From the text: (§1) Description: Raw mass spectrometry data for proteolytic mapping of fibrinogen, vimentin, and hnRNP A2/B1 by cathepsins B, S, and H (sheets 1-6); citrullination site mapping of fibrinogen and vimentin by trypsin digestion (sheets 7-8); and the natural antigen processing assay with native, PAD2-citrullinated (PAD2-cit), and PAD4-citrullinated (PAD4-cit) fibrinogen (sheets 9-11).

| Molecule | Modifications (Deamidated [R...] = citrullinated arginine positions found) |
| --- | --- |
| Complement factor H-related protein 5 (protein, UniProt Q9BXR6 19-569, looked up) Complement factor H-related …: EGTLCDFPKIHHGFLYDEEDYNPFSQVPTGEVFYYSCEYNFVSPSKSFWTRITCTEEGWSPTPKCLRMCSFPFVKNGHSESSGLIHLEGDTVQIICNTGYSLQNNEKNISCVERGWSTPPICSFTKGECHVPILEANVDAQPKKESYKVGDVLKFSCRKNLIRVGSDSVQCYQFGWSPNFPTCKGQVRSCGPPPQLSNGEVKEIRKEEYGHNEVVEYDCNPNFIINGPKKIQCVDGEWTTLPTCVEQVKTCGYIPELEYGYVQPSVPPYQHGVSVEVNCRNEYAMIGNNMITCINGIWTELPMCVATHQLKRCKIAGVNIKTLLKLSGKEFNHNSRIRYRCSDIFRYRHSVCINGKWNPEVDCTEKREQFCPPPPQIPNAQNMTTTVNYQDGEKVAVLCKENYLLPEAKEIVCKDGRWQSLPRCVESTAYCGPPPSINNGDTTSFPLSVYPPGSTVTYRCQSFYKLQGSVTVTCRNKQWSEPPRCLDPCVVSEENMNKNNIQLKWRNDGKLYAKTGDAVEFQCKFPHKAMISSPPFRAICQEGKFEYPICE | Deamidated [R69] |
| Interferon alpha-21 (protein, UniProt P01568 24-189, looked up) Interferon alpha-21: CDLPQTHSLGNRRALILLAQMGRISPFSCLKDRHDFGFPQEEFDGNQFQKAQAISVLHEMIQQTFNLFSTKDSSATWEQSLLEKFSTELNQQLNDLEACVIQEVGVEETPLMNVDSILAVKKYFQRITLYLTEKKYSPCAWEVVRAEIMRSFSLSKIFQERLRRKE | Deamidated [R56] |

System: PAD2 and PAD4
Experiment: Citrullination site mapping of fibrinogen and vimentin by trypsin digestion and mass spectrometry (protein-level sheet, one search over native, PAD2-cit and PAD4-cit samples)
Format: biochemical, human
Details: modified residues found per protein; Deamidated [R..] = deamidated (citrullinated) arginine positions; trypsin digest, Sequest HT; not split by sample (native, PAD2-citrullinated, PAD4-citrullinated fibrinogen and vimentin)
From the text: as §1

| Molecule | Modifications |
| --- | --- |
| P03971 (protein, UniProt P03971 1-560, looked up, full-length) MRDLPLTSLALVLSALGALLGTEALRAEEPAVGTSGLIFREDLDWPPGSPQEPLCLVALGGDSNGSSSPLRVVGALSAYEQAFLGAVQRARWGPRDLATFGVCNTGDRQAALPSLRRLGAWLRDPGGQRLVVLHLEEVTWEPTPSLRFQEPPPGGAGPPELALLVLYPGPGPEVTVTRAGLPGAQSLCPSRDTRYLVLAVDRPAGAWRGSGLALTLQPRGEDSRLSTARLQALLFGDDHRCFTRMTPALLLLPRSEPAPLPAHGQLDTVPFPPPRPSAELEESPPSADPFLETLTRLVRALRVPPARASAPRLALDPDALAGFPQGLVNLSDPAALERLLDGEEPLLLLLRPTAATTGDPAPLHDPTSAPWATALARRVAAELQAAAAELRSLPGLPPATAPLLARLLALCPGGPGGLGDPLRALLLLKALQGLRVEWRGRDPRGPGRAQRSAGATAADGPCALRELSVDLRAERSVLIPETYQANNCQGVCGWPQSDRNPRYGNHVVLLLKMQVRGAALARPPCCVPTAYAGKLLISLSEERISAHHVPNMVATECGCR | Deamidated [R499; R516; R522; R560] |
| Q9NSB2 (protein) MSCRSYRVSSGHRVGNFSSCSAMTPQNLNRFRANSVSCWSGPGFRGLGSFGSRSVITFGSYSPRIAAVGSRPIHCGVRFGAGCGMGFGDGRGVGLGPRADSCVGLGFGAGSGIGYGFGGPGFGYRVGGVGVPAAPSITAVTVNKSLLTPLNLEIDPNAQRVKKDEKEQIKTLNNKFASFIDKVRFLEQQNKLLETKWSFLQEQKCIRSNLEPLFESYITNLRRQLEVLVSDQARLQAERNHLQDVLEGFKKKYEEEVVCRANAENEFVALKKDVDAAFMNKSDLEANVDTLTQEIDFLKTLYMEEIQLLQSHISETSVIVKMDNSRDLNLDGIIAEVKAQYEEVARRSRADAEAWYQTKYEEMQVTAGQHCDNLRNIRNEINELTRLIQRLKAEIEHAKAQRAKLEAAVAEAEQQGEATLSDAKCKLADLECALQQAKQDMARQLCEYQELMNAKLGLDIEIATYRRLLEGEESRLCEGVGPVNISVSSSRGGLVCGPEP | Deamidated [R184] |
| Q16610 (protein) MGTTARAALVLTYLAVASAASEGGFTATGQRQLRPEHFQEVGYAAPPSPPLSRSLPMDHPDSSQHGPPFEGQSQVQPPPSQEATPLQQEKLLPAQLPAEKEVGPPLPQEAVPLQKELPSLQHPNEQKEGTPAPFGDQSHPEPESWNAAQHCQQDRSQGGWGHRLDGFPPGRPSPDNLNQICLPNRQHVVYGPWNLPQSSYSHLTRQGETLNFLEIGYSRCCHCRSHTNRLECAKLVWEEAMSRFCEAEFSVKTRPHWCCTRQGEARFSCFQEEAPQPHYQLRACPSHQPDISSGLELPFPPGVPTLDNIKNICHLRRFRSVPRNLPATDPLQRELLALIQLEREFQRCCRQGNNHTCTWKAWEDTLDKYCDREYAVKTHHHLCCRHPPSPTRDECFARRAPYPNYDRDILTIDIGRVTPNLMGHLCGNQRVLTKHKHIPGLIHNMTARCCDLPFPEQACCAEEEKLTFINDLCGPRRNIWRDPALCCYLSPGDEQVNCFN | Deamidated [R171; R343] |
| Fibrinogen a: α chain of human fibrinogen (Cayman Chemical), RA autoantigen; native or citrullinated by PAD2 or PAD4 (protein) MFSMRIVCLVLSVVGTAWTADSGEGDFLAEGGGVRGPRVVERHQSACKDSDWPFCSDEDWNYKCPSGCRMKGLIDEVNQDFTNRINKLKNSLFEYQKNNKDSHSLTTNIMEILRGDFSSANNRDNTYNRVSEDLRSRIEVLKRKVIEKVQHIQLLQKNVRAQLVDMKRLEVDIDIKIRSCRGSCSRALAREVDLKDYEDQQKQLEQVIAKDLLPSRDRQHLPLIKMKPVPDLVPGNFKSQLQKVPPEWKALTDMPQMRMELERPGGNEITRGGSTSYGTGSETESPRNPSSAGSWNSGSSGPGSTGNRNPGSSGTGGTATWKPGSSGPGSTGSWNSGSSGTGSTGNQNPGSPRPGSTGTWNPGSSERGSAGHWTSESSVSGSTGQWHSESGSFRPDSPGSGNARPNNPDWGTFEEVSGNVSPGTRREYHTEKLVTSKGDKELRTGKEKVTSGSTTTTRRSCSKTVTKTVIGPDGHKEVTKEVVTSEDGSDCPEAMDLGTL | Deamidated [R42; R84; R114; R123; R129; R160; R216; R218; R258; R263; R271; R287; R308; R510; R512; R547; R573; R591] |
| C9JEU5 (protein) MSWSLHPRNLILYFYALLFLSSTCVAYVATRDNCCILDERFGSYCPTTCGIADFLSTYQTKVDKDLQSLEDILHQVENKTSEVKQLIKAIQLTYNPDESSKPNMIDAATLKSRKMLEEIMKYEASILTHDSSIRYLQEIYNSNNQKIVNLKEKVAQLEAQCQEPCKDTVQIHDITGKVKVDSPSLDCQDIANKGAKQSGLYFIKPLKANQQFLVYCEIDGSGNGWTVFQKRLDGSVDFKKNWIQYKEGFGHLSPTGTTEFWLGNEKIHLISTQSAIPYALRVELEDWNGRTSTADYAMFKVGPEADKYRLTYAYFAGGDAGDAFDGFDFGDDPSDKFFTSHNGMQFSTWDNDNDKFEGNCAEQDGSGWWMNKCHAGHLNGVYYQGGTYSKASTPNGYDNGIIWATWKTRWYSMKKTTMKIIPFNRLTIGEGQQHHLGGAKQAGDV | Deamidated [R113; R134; R281; R290; R309; R409; R425] |
| P04003 (protein, UniProt P04003 1-597, looked up, full-length) MHPPKTPSGALHRKRKMAAWPFSRLWKVSDPILFQMTLIAALLPAVLGNCGPPPTLSFAAPMDITLTETRFKTGTTLKYTCLPGYVRSHSTQTLTCNSDGEWVYNTFCIYKRCRHPGELRNGQVEIKTDLSFGSQIEFSCSEGFFLIGSTTSRCEVQDRGVGWSHPLPQCEIVKCKPPPDIRNGRHSGEENFYAYGFSVTYSCDPRFSLLGHASISCTVENETIGVWRPSPPTCEKITCRKPDVSHGEMVSGFGPIYNYKDTIVFKCQKGFVLRGSSVIHCDADSKWNPSPPACEPNSCINLPDIPHASWETYPRPTKEDVYVVGTVLRYRCHPGYKPTTDEPTTVICQKNLRWTPYQGCEALCCPEPKLNNGEITQHRKSRPANHCVYFYGDEISFSCHETSRFSAICQGDGTWSPRTPSCGDICNFPPKIAHGHYKQSSSYSFFKEEIIYECDKGYILVGQAKLSCSYSHWSAPAPQCKALCRKPELVNGRLSVDKDQYVEPENVTIQCDSGYGVVGPQSITCSGNRTWYPEVPKCEWETPEGCEQVLTGKRLMQCLPNPEDVKMALEVYKLSLEIEQLELQRDSARQSTLDKEL | Deamidated [R159; R329; R331; R485; R493] |
| Q9UM07 (protein) MAQGTLIRVTPEQPTHAVCVLGTLTQLDICSSAPEDCTSFSINASPGVVVDIAHGPPAKKKSTGSSTWPLDPGVEVTLTMKVASGSTGDQKVQISYYGPKTPPVKALLYLTGVEISLCADITRTGKVKPTRAVKDQRTWTWGPCGQGAILLVNCDRDNLESSAMDCEDDEVLDSEDLQDMSLMTLSTKTPKDFFTNHTLVLHVARSEMDKVRVFQATRGKLSSKCSVVLGPKWPSHYLMVPGGKHNMDFYVEALAFPDTDFPGLITLTISLLDTSNLELPEAVVFQDSVVFRVAPWIMTPNTQPPQEVYACSIFENEDFLKSVTTLAMKAKCKLTICPEEENMDDQWMQDEMEIGYIQAPHKTLPVVFDSPRNRGLKEFPIKRVMGPDFGYVTRGPQTGGISGLDSFGNLEVSPPVTVRGKEYPLGRILFGDSCYPSNDSRQMHQALQDFLSAQQVQAPVKLYSDWLSVGHVDEFLSFVPAPDRKGFRLLLASPRSCYKL | Deamidated [R123; R137; R156; R205; R212; R218; R372; R374; R383; R394; R419; R427; R441; R484; R488; R495; R536; R544; R550; R555; R609; R639; R650] |
| P0DPH8 (protein, UniProt P0DPH8 1-450, looked up, full-length) MRECISIHVGQAGVQIGNACWELYCLEHGIQPDGQMPSDKTIGGGDDSFNTFFSETGAGKHVPRAVFVDLEPTVVDEVRTGTYRQLFHPEQLITGKEDAANNYARGHYTIGKEIVDLVLDRIRKLADLCTGLQGFLIFHSFGGGTGSGFASLLMERLSVDYGKKSKLEFAIYPAPQVSTAVVEPYNSILTTHTTLEHSDCAFMVDNEAIYDICRRNLDIERPTYTNLNRLIGQIVSSITASLRFDGALNVDLTEFQTNLVPYPRIHFPLATYAPVISAEKAYHEQLSVAEITNACFEPANQMVKCDPRHGKYMACCMLYRGDVVPKDVNAAIATIKTKRTIQFVDWCPTGFKVGINYQPPTVVPGGDLAKVQRAVCMLSNTTAIAEAWARLDHKFDLMYAKRAFVHWYVGEGMEEGEFSEAREDLAALEKDYEEVGVDSVEAEAEEGEEY | Deamidated [R64; R84; R105; R339; R373; R422] |
